Assay results as given in article PMC4708090 (Biochemistry, 2015).

B1: wt BfrB (Pseudomonas aeruginosa bacterioferritin B, 24-mer) (natural protein)
chain: not shown
B2: wt Bfd (C43S mutant of P. aeruginosa bacterioferritin-associated ferredoxin) (natural protein, Pseudomonas aeruginosa)
chain: MYVCLCQGVTDNQIRDAIYEGCCSYREVREATGVGTQCGKCASLAKQVVRETLNDLQSAQPVPAFGTTAFVAA

What was measured:
[1] = biological target: B2; assay: ITC
[2] = biological target: the molecule itself; assay: SEC
[3] = biological target: B1; assay: ITC
[4] = biological target: B1; assay: SPR
[5] = biological target: E81A BfrB (Pseudomonas aeruginosa, UniProt Q9HY79 1-158, E81A); assay: SPR
[6] = biological target: L68A BfrB (Pseudomonas aeruginosa, UniProt Q9HY79 1-158, L68A); assay: SPR
[7] = biological target: E85A BfrB (Pseudomonas aeruginosa, UniProt Q9HY79 1-158, E85A); assay: SPR
[8] = biological target: B1; assay: SPR; remark: listed apart in the source
[9] = biological target: B1; assay: SPR; remark: listed apart in the source
[10] = biological target: B1; assay: SPR; remark: listed apart in the source

B1
dH [1]: 1.6 ± 0.3 kcal/mol
binding result [2]: binds

B2
Kd [3]: 4.2 ± 0.4 µM
Kd [4]: 2.6 ± 0.4 µM
koff [4]: 0.069 ± 0.01 s⁻¹
kon [4]: 26000 ± 2000 M⁻¹ s⁻¹
Kd [5]: 258 ± 21.5 µM
Kd [6]: 298 ± 20.5 µM
Kd [7]: 590 ± 2 µM
stoichiometry N [8]: 12.7 Bfd per 24-mer BfrB
Kd [9]: 3.3 ± 0.5 µM

B3: Y2F Bfd (natural protein, Pseudomonas aeruginosa)
chain: MFVCLCQGVTDNQIRDAIYEGCCSYREVREATGVGTQCGKCASLAKQVVRETLNDLQSAQPVPAFGTTAFVAA
Kd [10]: 10.7 ± 0.2 µM

B4: L5A Bfd (natural protein, Pseudomonas aeruginosa)
chain: MYVCACQGVTDNQIRDAIYEGCCSYREVREATGVGTQCGKCASLAKQVVRETLNDLQSAQPVPAFGTTAFVAA
Kd [10]: 82 ± 2.5 µM

B5: K40A Bfd (natural protein, Pseudomonas aeruginosa)
chain: MYVCLCQGVTDNQIRDAIYEGCCSYREVREATGVGTQCGACASLAKQVVRETLNDLQSAQPVPAFGTTAFVAA
Kd [10]: 7.7 ± 0.5 µM
